{"source": "paper PMC2812517", "about": "(The Journal of Cell Biology, 2010)", "binders": {"B1": {"name": "MBP-FYCO1(863–1,478) (domain or fragment)", "chain": "AQQREEELRALQEELSQAKCSSEEAQLEHAELQEQLHRANTDTAELGIQVCALTVEKERVEEALACAVQELQDAKEAASREREGLERQVAGLQQEKESLQEKLKAAKAAAGSLPGLQAQLAQAEQRAQSLQEAAHQELNTLKFQLSAEIMDYQSRLKNAGEECKSLRGQLEEQGRQLQAAEEAVEKLKATQADMGEKLSCTSNHLAECQAAMLRKDKEGAALREDLERTQKELEKATTKIQEYYNKLCQEVTNRERNDQKMLADLDDLNRTKKYLEERLIELLRDKDALWQKSDALEFQQKLSAEERWLGDTEANHCLDCKREFSWMVRRHHCRICGRIFCYYCCNNYVLSKHGGKKERCCRACFQKLSEGPGSPDSSGSGTSQGEPSPALSPASPGPQATGGQGANTDYRPPDDAVFDIITDEELCQIQESGSSLPETPTETDSLDPNAAEQDTTSTSLTPEDTEDMPVGQDSEICLLKSGELMIKVPLTVDEIASFGEGSRELFVRSSTYSLIPITVAEAGLTISWVFSSDPKSISFSVVFQEAEDTPLDQCKVLIPTTRCNSHKENIQGQLKVRTPGIYMLIFDNTFSRFVSKKVFYHLTVDRPVIYDGSDFL"}}, "biological_target": "GST-LC3B (UniProt Q9GZQ8 1-120)", "test": "pull-down"}
{"binder": "B1", "values": [{"measurement": "binding result", "result": "binds"}]}
